In article PMC8653789:

Legend:
Assay in all cases: AlphaScreen or HTRF
[1] = molecular target: H3K4me1/H4K12ac nucleosome (UniProt P04908)
[2] = molecular target: H3K4me2/H4K12ac nucleosome (UniProt P04908)
[3] = molecular target: H3K4me3/H4K12ac nucleosome (UniProt P04908)

fold reduction of binding relative to wild type [1]	fold reduction of binding relative to wild type [2]	fold reduction of binding relative to wild type [3]	Substance
> 4 fold	> 4 fold	–	PHIP Tudor–BD1–BD2 R1310C (from UniProt Q8WWQ0 940-1434) (domain or fragment)
> 10 fold	> 10 fold	> 10 fold	PHIP Tudor–BD1–BD2 R1402S (from UniProt Q8WWQ0 940-1434) (domain or fragment)
> 3 fold	> 3 fold	–	PHIP Tudor–BD1–BD2 W1156L (from UniProt Q8WWQ0 940-1434) (domain or fragment)
